Assay results from paper PMC5829831, “Structural Basis for DNA Recognition by the Two-Component Response Regulator RcsB” (mBio, 2018).

Tests used:
[1] = target: the molecule itself; assay: SEC-MALS; RcsB in the presence of the 22-bp DNA duplex DNA22, with and without CPh; RcsB and DNA 1 mg/ml; Superdex 75 10/300 GL; 10 mM Tris-HCl pH 8.3, 150 mM NaCl, 0.5 mM TCEP; 22°C
RcsB [2] = target: T1, RcsB (Escherichia coli str. K-12 substr. …, UniProt P0DMC7 1-216); assay: SPR; no CPh; EMSA: 10 mM Tris pH 7.5, 40 mM KCl, 1 mM DTT, 10 mM MgCl2, 5% glycerol, 0.1 ug/ul BSA, room temp; SPR: 10 mM Tris-HCl pH 8.3, 150 mM NaCl, 0.5 mM TCEP, 25 C; conditions: protein: recombinant; tags: N-terminal 6xHis (pCA24n, ASKA clone); chain copies: 2; label: biotin (SPR); blunt
T1 sequence: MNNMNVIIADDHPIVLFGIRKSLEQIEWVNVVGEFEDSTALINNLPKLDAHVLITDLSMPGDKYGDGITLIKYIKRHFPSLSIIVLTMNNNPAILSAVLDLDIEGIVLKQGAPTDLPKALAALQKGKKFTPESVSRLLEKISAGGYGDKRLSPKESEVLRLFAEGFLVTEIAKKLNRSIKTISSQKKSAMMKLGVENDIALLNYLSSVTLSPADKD

RcsB [3] = target: T1, RcsB; assay: X-ray crystallography; unphosphorylated, 3.37 A; tetramer on two DNAs; EMSA: 10 mM Tris pH 7.5, 40 mM KCl, 1 mM DTT, 10 mM MgCl2, 5% glycerol, 0.1 ug/ul BSA, room temp; SPR: 10 mM Tris-HCl pH 8.3, 150 mM NaCl, 0.5 mM TCEP, 25 C; conditions: protein: recombinant; tags: N-terminal 6xHis (pCA24n, ASKA clone); chain copies: 2; blunt

B1: RcsB, two-component response regulator of the Rcs phosphorelay system (natural protein, E. coli, UniProt P0DMC7 1-216, looked up)
chain: MNNMNVIIADDHPIVLFGIRKSLEQIEWVNVVGEFEDSTALINNLPKLDAHVLITDLSMPGDKYGDGITLIKYIKRHFPSLSIIVLTMNNNPAILSAVLDLDIEGIVLKQGAPTDLPKALAALQKGKKFTPESVSRLLEKISAGGYGDKRLSPKESEVLRLFAEGFLVTEIAKKLNRSIKTISSQKKSAMMKLGVENDIALLNYLSSVTLSPADKD
notes: RcsB from Escherichia coli, full length, REC domain, linker and HTH domain; theoretical mass of the monomer 24 kDa; In some samples carbamoyl phosphate (CPh) and MgCl2 were added to phosphorylate D56; also called RcsB* (in the presence of phosphodonor); unphosphorylated RcsB; source: purified RcsB
In the case of B1, the “stoichiometry N” value [1] is reported as 2.

B2: DNA22, biotinylated (dsDNA)
DNA 1: GATTTAGGAAAAATCTTAGATA
DNA 2: TATCTAAGATTTTTCCTAAATC
With B2 the Kd (RcsB [2]) was about 5.34 µM.

B3: DNA18 (flhDC RcsAB box) (dsDNA)
DNA 1: TTTAGGAAAAATCTTAGA
DNA 2: TCTAAGATTTTTCCTAAA
B3: binds (RcsB [3]).
